This note sets out measurements from patent US20220098305A1 (Hoffmann-La Roche, published 2022).

For orientation: EC50 means the midpoint of the concentration-response curve. Low readings indicate greater potency, high ones weaker potency. One may read the EC50 (read off the curve) as the midpoint of the concentration-response curve. A high value points to weaker potency.

The target in assay [1] is T1, human FAP (human, UniProt Q12884 1-760).
T1 construct: also called hu FAP
Kind of assay: flow cytometry, NIH/3T3-huFAP clone 19 cells. (In general: A flow cytometer gives signals particle by particle.)

In assay [2] the target is T1, human FAP. Description: flow cytometry on NIH/3T3-huFAP clone 19 cells, geometric MFI.
In assay [3] the target is T2, human ICOS (human, UniProt Q9Y6W8 21-199).
T2 construct: The cell that carries it is named under assay; also called huICOS; CD278
T2 sequence: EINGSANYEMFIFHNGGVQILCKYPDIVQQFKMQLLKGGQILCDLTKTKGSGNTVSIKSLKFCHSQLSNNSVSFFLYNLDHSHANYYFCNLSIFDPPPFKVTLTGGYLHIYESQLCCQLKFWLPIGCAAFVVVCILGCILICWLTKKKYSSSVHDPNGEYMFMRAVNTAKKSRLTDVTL
Description: flow cytometry, SR cells.

Assay [4] deals with T2, human ICOS. Kind of assay: flow cytometry on SR cells expressing human ICOS, geometric MFI.
For assay [5], the target named is T2, human ICOS. Kind of assay: flow cytometry, pre-activated human PBMCs, CD4+ subset. As to the method: (§1) Briefly, suspension cells were harvested, counted, checked for viability and re-suspended at 1 million cells per ml in FACS buffer (PBS with 0.1% BSA). […] The staining was fixed for 20 min at 4° C. in the dark, using 75 μl of 1% PFA in FACS buffer per well.
(§2) Briefly, Peripheral blood mononuclear cells (PBMCs) were prepared by Histopaque (Sigma-Aldrich, Cat No. 10771-500ML Histopaque-1077) density centrifugation of enriched lymphocyte preparations of heparinized blood obtained from a Buffy Coat (“Blutspende Zürich”). The blood was diluted 1:2 with sterile DPBS and layered over Histopaque gradient (Sigma, #H8889). After centrifugation (450×g, 30 minutes, room temperature), the plasma above the PBMC-containing interphase was discarded and PBMCs transferred in a new falcon tube subsequently filled with 50 ml of PBS. The mixture was centrifuged (400×g, 10 minutes, room temperature), the supernatant discarded and the PBMC pellet washed twice with sterile PBS (centrifugation steps 350×g, 10 minutes). The resulting PBMC population was counted automatically (Cedex HiRes) and stored in RPMI1640 medium containing 10% FCS and 1% Glutamax (Gibco 35050061). […] After incubation the PBMCs were used for a subsequent binding experiment, as described above.

A further assay has as its target T3, cynomolgus ICOS (cynomolgus, UniProt Q9Y6W8 21-195 (human entry)).
T3 chain: T2 sequence with T54K, H81R, A129T, L136F, S152T, D176G, V177T, L179P
Description: flow cytometry on cynomolgus PBMCs activated 48 h with CD3/CD28 beads, CD4+ subset, MFI.

Assay [6] addresses T2, human ICOS. Description: flow cytometry, pre-activated human PBMCs, CD8+ subset. Here is the method:
as §1, §2

Assay [7] concerns the target T4, murine FAP (murine, UniProt P97321 26-761, limits assumed).
T4 construct: also called mouse FAP
Kind of assay: flow cytometry, cells carrying murine FAP not told.

The target in assay [8] is T1, human FAP. Description: flow cytometry, NIH/3T3-huFAP clone 19 cells. The source holds these as a separate data set.
Assay [9] has as its target T1, human FAP. Kind of assay: flow cytometry, NIH/3T3-huFAP clone 19 cells. As to the method:
as §1
(§3) Fluorescence was analyzed by FACS using a FACS Fortessa (Software FACS Diva). Binding curves and EC₅₀ values were obtained using GraphPadPrism 7.
This is another data set of the same source.

The next assay concerns the target T5, murine ICOS (murine, UniProt Q9WVS0 21-200).
T5 sequence: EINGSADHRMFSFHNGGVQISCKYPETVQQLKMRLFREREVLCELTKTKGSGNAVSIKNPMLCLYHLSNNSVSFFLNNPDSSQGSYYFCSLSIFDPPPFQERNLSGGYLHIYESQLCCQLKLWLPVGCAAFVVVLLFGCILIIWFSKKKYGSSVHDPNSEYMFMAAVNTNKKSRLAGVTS
Kind of assay: flow cytometry, % positive cells; murine ICOS on recombinant CHO cells according to the legend, on pre-activated murine splenocytes according to the example.

The target of assay [10] is T4, murine FAP. Description: flow cytometry, % positive cells; cells bearing murine FAP not given.
Assay [11] concerns the target T1, human FAP. Kind of assay: flow cytometry on NIH/3T3-huFAP clone 19 cells, AF647-labelled anti-human Fc secondary antibody, MFI. Here is the method:
as §1, §3

Assay [12] has as its target T2, human ICOS. Kind of assay: flow cytometry, CHO cells expressing human ICOS. Here is the method:
as §1, §3

For assay [13], the target named is T1, human FAP. Description: flow cytometry on NIH/3T3-huFAP clone 19 cells, MFI on single cells. As to the method: as §1

Positions count from the first letter of the chain named. Names and notes keep the numbering of the source. Like-named read-outs stand apart in the source and are kept apart here.

B1: Molecule 40, bispecific 2+1 anti-ICOS (009)/anti-FAP (4B9) huIgG1 P329GLALA kih (bispecific antibody)
heavy 1: EVRLDETGGGVVQPGRPMELSCVASGFTFSDYWMNWVRQSPEKGLEWVAQIRNKPYNYETYYSDSVKGRFTISRDDSKSRVYLQMNNLRAEDMGIYYCTWPRLRSSDWHFDVWGAGTTVTVSSASTKGPSVFPLAPSSKSTSGGTAALGCLVKDYFPEPVTVSWNSGALTSGVHTFPAVLQSSGLYSLSSVVTVPSSSLGTQTYICNVNHKPSNTKVDKKVEPKSCDKTHTCPPCPAPEAAGGPSVFLFPPKPKDTLMISRTPEVTCVVVDVSHEDPEVKFNWYVDGVEVHNAKTKPREEQYNSTYRVVSVLTVLHQDWLNGKEYKCKVSNKALGAPIEKTISKAKGQPREPQVCTLPPSRDELTKNQVSLSCAVKGFYPSDIAVEWESNGQPENNYKTTPPVLDSDGSFFLVSKLTVDKSRWQQGNVFSCSVMHEALHNHYTQKSLSLSPGGGGGSGGGGSGGGGSGGGGSEIVLTQSPGTLSLSPGERATLSCRASQSVTSSYLAWYQQKPGQAPRLLINVGSRRATGIPDRFSGSGSGTDFTLTISRLEPEDFAVYYCQQGIMLPPTFGQGTKVEIK
heavy 2: not shown
light: AIQMTQSPSSLSASLGGEVTITCKASQDINKNIAWYQHKPGRGPRLLIWYTSTLQTGIPSRFSGSGSGRDYSFTISNLEPEDFATYYCLQFDNLYTFGSGTKLEIRRTVAAPSVFIFPPSDEQLKSGTASVVCLLNNFYPREAKVQWKVDNALQSGNSQESVTEQDSKDSTYSLSSTLTLSKADYEKHKVYACEVTHQGLSSPVTKSFNRGEC
As for B1, the values for the EC50 with human FAP [1] and with human ICOS [3] were 0.00385 nM and 0.00174 nM, respectively. Further, the figures for the “EC50 (read off the curve)” value with human FAP [2] and in the assay with human ICOS [4] were roughly 4 nM and roughly 2 nM, respectively.

B2: Molecule 10, bispecific monovalent anti-ICOS (1167)/anti-FAP (4B9) huIgG1 P329GLALA kih antibody (1+1) (bispecific antibody)
heavy 1: EIVLTQSPGTLSLSPGERATLSCRASQSVTSSYLAWYQQKPGQAPRLLINVGSRRATGIPDRFSGSGSGTDFTLTISRLEPEDFAVYYCQQGIMLPPTFGQGTKVEIKSSASTKGPSVFPLAPSSKSTSGGTAALGCLVKDYFPEPVTVSWNSGALTSGVHTFPAVLQSSGLYSLSSVVTVPSSSLGTQTYICNVNHKPSNTKVDKKVEPKSCDKTHTCPPCPAPEAAGGPSVFLFPPKPKDTLMISRTPEVTCVVVDVSHEDPEVKFNWYVDGVEVHNAKTKPREEQYNSTYRVVSVLTVLHQDWLNGKEYKCKVSNKALGAPIEKTISKAKGQPREPQVCTLPPSRDELTKNQVSLSCAVKGFYPSDIAVEWESNGQPENNYKTTPPVLDSDGSFFLVSKLTVDKSRWQQGNVFSCSVMHEALHNHYTQKSLSLSP
light 1: EVQLLESGGGLVQPGGSLRLSCAASGFTFSSYAMSWVRQAPGKGLEWVSAIIGSGASTYYADSVKGRFTISRDNSKNTLYLQMNSLRAEDTAVYYCAKGWFGGFNYWGQGTLVTVSSASVAAPSVFIFPPSDEQLKSGTASVVCLLNNFYPREAKVQWKVDNALQSGNSQESVTEQDSKDSTYSLSSTLTLSKADYEKHKVYACEVTHQGLSSPVTKSFNRGEC
heavy 2: not shown
light 2: DIQMTQSPSSVSASVGDRVTITCRASQGINNFLAWYQQKPGKAPKLLIYDASSLQSGVPSRFAGSGSGTDFTLTISSLQPEDFATYYCQQYNFYPLTFGGGTMVEIKRTVAAPSVFIFPPSDRKLKSGTASVVCLLNNFYPREAKVQWKVDNALQSGNSQESVTEQDSKDSTYSLSSTLTLSKADYEKHKVYACEVTHQGLSSPVTKSFNRGEC
notes: CrossFab (VLCH1/VHCL) on the FAP arm; also called FAP-ICOS (1+1)
For the molecule B2, the EC50 with human ICOS [5] is roughly 58 nM; in the assay with human ICOS [6], roughly 124 nM; with murine FAP [7] it was 0.177 nM; in the assay with human FAP [8] it was 1.54 nM; with human FAP [9], 1.4 nM; in the assay with human ICOS [12], 41.7 nM. Besides, the binding result in the assay with cynomolgus ICOS and with murine ICOS was “binds” in each case. For the same molecule, the entries for the concentration giving a half-maximal response (EC50 (read off the curve)) in the assay with murine FAP [10], with human FAP [11] and in the assay with human FAP [13] were roughly 0.2 nM, roughly 1 nM and roughly 2 nM, respectively.

B3: Molecule 11, bispecific 1+1 head-to-tail anti-ICOS (1167)/anti-FAP (4B9) huIgG1 P329GLALA kih antibody (bispecific antibody)
heavy 1: DKTHTCPPCPAPEAAGGPSVFLFPPKPKDTLMISRTPEVTCVVVDVSHEDPEVKFNWYVDGVEVHNAKTKPREEQYNSTYRVVSVLTVLHQDWLNGKEYKCKVSNKALGAPIEKTISKAKGQPREPQVCTLPPSRDELTKNQVSLSCAVKGFYPSDIAVEWESNGQPENNYKTTPPVLDSDGSFFLVSKLTVDKSRWQQGNVFSCSVMHEALHNHYTQKSLSLSPGGGGGSGGGGSGGGGSGGGGSEIVLTQSPGTLSLSPGERATLSCRASQSVTSSYLAWYQQKPGQAPRLLINVGSRRATGIPDRFSGSGSGTDFTLTISRLEPEDFAVYYCQQGIMLPPTFGQGTKVEIK
heavy 2: not shown
light: B2 light 2
notes: names and VH/VL of 4B9 are swapped; also called 1+1_HT; FAP-ICOS (HT)
On to B3, for which the binding result in the assay with cynomolgus ICOS and in the assay with murine ICOS was “binds” in each case. Also, the figures for the concentration for a half-maximal effect (EC50) with murine FAP [7], in the assay with human FAP [9] and with human ICOS [12] were 0.413 nM, 1.15 nM and 4.17 nM, respectively. Moreover, the entries for the “EC50 (read off the curve)” value in the assay with murine FAP [10] and with human FAP [11] were roughly 0.4 nM and roughly 1 nM, respectively.

B4: Molecule 12, bispecific 2+1 anti-ICOS (1167)/anti-FAP (4B9) Crossfab-IgG P329G LALA (bispecific antibody)
heavy 1: EVRLLESGGGLVQPGGSLRLSCAASGFTFNTYAVHWVRQAPGKGLEWVSGIGGSGVRTYYADSVKGRLTISRDNSKNTLYLQMNSLRAEDTAIYFCAKDIYVADFTGYAFDIWGQGTMVTVSSASTKGPSVFPLAPSSKSTSGGTAALGCLVEDYFPEPVTVSWNSGALTSGVHTFPAVLQSSGLYSLSSVVTVPSSSLGTQTYICNVNHKPSNTKVDEKVEPKSCDKTHTCPPCPAPEAAGGPSVFLFPPKPKDTLMISRTPEVTCVVVDVSHEDPEVKFNWYVDGVEVHNAKTKPREEQYNSTYRVVSVLTVLHQDWLNGKEYKCKVSNKALGAPIEKTISKAKGQPREPQVCTLPPSRDELTKNQVSLSCAVKGFYPSDIAVEWESNGQPENNYKTTPPVLDSDGSFFLVSKLTVDKSRWQQGNVFSCSVMHEALHNHYTQKSLSLSP
light 1: B2 light 2
heavy 2: not shown
light 2: B2 light 1
Consider B4, for which the 50% effective concentration (EC50) with human ICOS [5] is roughly 12.6 nM; in the assay with human ICOS [6], roughly 12.6 nM; in the assay with human FAP [8] it was 1.82 nM. Further, the “EC50 (read off the curve)” value with human FAP [13] is roughly 2 nM.
